The values below come from a protein production outcome set (Wang et al. 2014).

This series in a line: label from the status in PepcDB records.

For the sequence “MTRAINDPGNEDPGSLLETDADALLGGAAAQAPEERCRLAAQACIRACERYLALCTESSREQRQHAGDCADLCRLAALLLERRSPWAPAACELAARYALACAERCDGDEPLERECAGACRRFVEACRPLLPA”, the protein production entry was “not failed”.

With “MTRFIHTADWQIGRQYGQFDSDDAAVLAEARLEPVARIAAQASELAVDAVLVAGDVFDTQSVSDRTIRRLFGAMQAYEGPWVLIAGNHDAALADSVWSRARRLECIGTNVHVPQDTAAVELPLAGLAVLAAPLTQRHTYDDVTAAFDTMDSAAGLVRVGLAHGSVADRLPEQADAANPIAPDRAQRARLDYLALGDWHGCLRIDERTWYAGTPEPDRFRGNAPGYALLVEVAAPGAPPQVRQLEVGKYRWSHWVERLDLASDAEDLGHRLAGLQAGDVLRLELHGALSLARRWDALRRDVERAAARVRALVADSAGLVLEPDAADLAALSVDGYVGAAAARLQAMQGDGAQAAAARVALRLLLQYQRELAEGAS”, the protein production result is reported as “failed”.

As to “MTRIAIALAQDFADWEPALLAAAARSYLGVEIVHATPDGMPVTSMGGLKVTPDTSYDALDPVDIDALVIPGGLSWEKGTAADLGGLVKRFRDRDRLVAGICAAASALGGTGVLNDVAHTGNALASHKAYPAYRGEAHYRDQPRAVSDGGVVTAAGSAPVSFAVEILKSLGLFGPEAEAELQIFAAEHR”, the protein production result is “not failed”.

Take “MTRIAIVGAGPAGLSLAYFLKGSRKVEATVYESMPEPGLKPCAWGLITGIENIIPIPNETIISEIRGFRIYLDNKLVFDIRTDNKLGYIIDKPLFLKRLSQEVNVEFNSKVVKKDDKYYINDKSLDHDKVIFATGHYSVSKSMSIPAIQYITDYEIDKEVVEFYFYSGFLGYAWVFPDREGSKIGIGGYAEVPELKERLKQILKGRIRTFHGARVTDYGVIEDRLDGNYTGEALGTVYAITGEGIRPSIISSKILADSILNRKDFKKEFKKSKLYWSLNWHAKIIKMTKENDPGTARLSKALLNNDPQLILKFAIGEFNRVDLIKIFGRSLILEHHHHHH”: the protein production result is “not failed”.

Turning to “MTRLNELWELYFQTLDKSTSWTFTKESFYNRYLKEPLGKKKLDSIQEHHIMAIIRHLQAEGMATRTVNTTLEILRPLFDFAIKNKALRDNPTRFIVLKKDNLEHHHHHH”, the protein production result was “failed”.

With “MTRMKMFKLWMVVMLLGLLPIVSEAQEEINNAINVQLEYLKKYPKDKEALRKVSFLYLNKADYDQAIFYGRQLFELGYNERDYNGAVIYSHICLGQAHMMKGNVKEAYSHLGQARLIGESNKNDSALCSVYNGLGLYASNVQKDYYRSLTYFFKGVEAARRCHYDRLYSILLSNIAGIYYLKNDSTGLKYALECYELGHERKDPYLIYSGSTNTAYMYYLKSDYNTALKYIQEAEFTMVQNDFYDQSNVYNLYGYILHKLNKDDEALVFFRKALDLKEQGNISSVMNSYLGYAEILMEHHQYDRAVRMLKAGIELSYQQANAIYRSDLLKALSRCYEEDGMLVEALKYHKLYQLETDSLYNAEKERAVGEIRAKYDMERQENEIKQNRLELLEKENKMQLLIAGFICIFIAASLLYYLYYRKNKLYLTIVKQNQDAIRREQQLQNKIDEQFAEIGRQSALLQEYLTDSTKTSLPQPEKYASSSLTDEKKQDLFLRLETLLWEEKVFTDNLLTKEKVAEMLGTNRTYLSQIINEQTKQTFTQFVNGFRTKEAVRLLSDPDNQTPLKAISAELGFNSMTTFYSQFQAATGMTPAQYRNKVQELHKNR”, the protein production entry is “failed”.

In the case of “MTRPIGIYEKATPKHFNWLERLQFAKELGFDFVELSIDESDERLARLEWSKEERLELVKAIFETGVRVPTITFSGHRRFPMGSNNPEKEARAMDMMKKCIVFAQDIGIRNIQLAGYDVYYEEKSPETRARFIKNLRQACTWAEEAQVILSIEIMDDPFMNSIEKYLAVEKEIDSPYLFVYPDTGNVSAWHNDLWSEFYNGHRSIAALHIKDTYAVTETSKGQFRDVPFGQGCVDWEEMFAVIKKTNYNGPFLIEMWSENCETVEETRAAIKEAQDFLYPLMEKTGVK”, the protein production entry is reported as “failed”.

Turning to “MTRSERKPLLMLMVNMFVVMMGIGLVIPILPYYIEAFGASSVELGLLIAIFSFMQFLLAPFWGRLSDKVGRKPLIAVGMFGFAVAEFIFAFATQFWMLFVSRILAGAFGSAVMPAAMAYVSDRTSEEKRGHGMGLLGASMALGIVVGPGIGGWLAEFSLATPFLFAGFAASFAAIFSLLWLPESLPLEKRKTEVEPVNQFVQMWQAVRSPIGFLLFLVFGLSFGLANFQTIFGIFALHRFHYNPSEVGFIMVLTGIVGAIAQGSLVGRLTERYGEEKVVLGSLSLSGIGFLIMMLAFNYWTVIATTCLFFLGNSILRPAVQSFLSKMAGDQQGMIMGLNNSILSLGNVVGALLAGLLFEWNMFLPYTVGAFVMFASLGATFRWLSKRASQGKHPEKSSP”, the protein production result is on record as “failed”.

In the case of “MTSAAEITAAVRQLYNTYPFPPEPLLDEPPPGYNWRWSWPAAYSFCTGRYPSQLDVAILDAGCGTGVGTEYLAHLNPQAKITALDLSEAALAIACERCRRSGATNVQFHHLSLEEVAQLGQTFQMINCVGVLHHLPEPQRGIQALADVLAPGGIVHIFVYGEYGRWEIKLMQQAIALLQGSDRHNYREGVAIGRQLFAALPENNRLKKREQERWSLENQRDECFADMYVHPQEIDYTIASLFELIRASGLEFIGFSNPQVWQLERLLGSQPELLQRAQQLDPIQQYQLIECLDPEAMTHFEFFLAKPPLPRHDWAADRELLAAIPWRHPCIDGWPGACVFNCHYEVIHLNQAEQEFLNAASGKATVAELLAQQPDFNLAEVRSLLARHLLLLGVKELEHHHHHH”, the protein production result was “failed”.

For the sequence “MTSCTIIDATDRSIRQTLGETSTLARLIWVDAGLASPPLCSGLARCGRCRVRITEAAPAPHEDDREFFSAEDISAGWRLACRHAPAHGMVVHVPLEHHHHHH”, the protein production entry is on record as “not failed”.

As for “MTSDGATSTSAAAAAAAAAAARRKPSWRERENNRRRERRRRAVAAKIYTGLRAQGDYNLPKHCDNNEVLKALCVEAGWVVEEDGTTYRKPLPGEIAGTSSRVTPYSSQNQSPLSSAFQSPIPSYQVSPSSSSFPSPSRGEPNNNMSSTFFPFLRNGGIPSSLPSLRISNSCPVTPPVSSPTSKNPKPLPNWESIAKQSMAIAKQSMASFNYPFYAVSAPASPTHRHQFHTPATIPECDESDSSTVDSGHWISFQKFAQQQPFSASMVPTSPTFNLVKPAPQQMSPNTAAFQEIGQSSEFKFENSQVKPWEGERIHDVGMEDLELTLGNGKARG”, the protein production result is listed as “failed”.

Turning to “MTSKRKRWTAQAAKLPSPMGGLALAIASLGWTWESVMPSLNGWGQLTGAMIASALLLMLTGKFLLHPTVLKNELSHPVIGSVIPTFAMALMVVSNLLGHYFPHAGLALWLGAIAIHVVFLGAFIYYRAIDFKLEHMVPSWFVPPIGIIVAAVSFPSNGEPWLVNTILAFGMLAYLIMLPLMLYRLIFCQAIPDAAKPTIAILAAPASLSLAGYLTVCEQPSIAVVAILVSIAILMTSVIYLAFFHLLKLPFSPGYAAFTFPMVIGATALFKTAHWLEQFSQMAELTEWVRLLADFELGVATIVVAYVALRYLTHYVPNPVENIGSTTSVQLK”, the protein production result is recorded as “failed”.

Turning to “MTSLPQISTLMREKSVENKLKVKAKDDHMVPSGLYEVRAIQLPGGSWRHYYVDHSSKETYWILPYSHPDGASSHPLEKLPVYLPSYEECVDETNPLAVPEVCSPARD”, the protein production entry is “not failed”.

As for “MTSPSHASDRGGGDGDSVENQSPELRKDPVTNRWVIFSPARAKRPTDFKSKSPQNPNPKPSSCPFCIGREQECAPELFRVPDHDPNWKLRVIENLYPALSRNLETQSTQPETGTSRTIVGFGFHDVVIESPVHSIQLSDIDPVGIGDILIAYKKRINQIAQHDSINYIQVFKNQGASAGASMSHSHSQMMALPVVPPTVSSRLDGTKDYFEETGKCCLCEAKSKHFVIDESSHFVSVAPFAATYPFEIWIIPKDHSSHFHHLDDVKAVDLGGLLKLMLQKIAKQLNDPPYNYMIHTSPLKVTESQLPYTHWFLQIVPQLSGVGGFEIGTGCYINPVFPEDVAKVMREVSLT”, the protein production entry is on record as “not failed”.

For the sequence “MTSRIQMHRTSPPPAYGTSAPPSGFTLGASTTSTLQRWALPLLLVAFGLFYLLPLTSHGLWIPDETRYAQISQEMLLSGDWVAPHFMGIRYFEKPIAGYWLIAIGQAVFGDNLFGVRIASALSTGLSVLLAYLITRRMWNDPRKSFAAALLYMSFGLIAGQAGYSNLDPQFTLWVNLSLVALWFALDGRSTRERLLAWAGLGVACGMGFMTKGFLAWLLPVLIALPYMIWQRRLGELVRYGLVAVLVAIGISLPWVLSIHAHEPDFWRFFFWHEHIRRFAADNAQHTRPWWFYLPLLVASSLPWAALLPGTFMQAWKDKRQAPTGFLLLWFLLPLAFFSLSRGKLPTYIMPCLLPLAVLMGSALIDRINAIQGRSIRINSLLNLLIGVAAMVALLYIQLTRPVYGHNEMLGLSLVFIMLMGWIIANLLPAARPLQYWPAPALGIWLLVALLPAGMPGFIVHNQMPDQFIKEHIEELRQTKTLLSNDLGAASALAWRLQRPEVTLYNTEGELKYGLAYADSAQRKVSMAEVGQWVSEARKQGSVGVVMRVKDVVESEEVALLPPGGKRYEEGNMLVLILPQSQP”, the protein production entry is given as “failed”.

With “MTSRLRALGGRINNIRTSELPKEKTRSEVTCSIRFLDGLVQTFKVNKQDLGQSLLDMAYGHLGVTEKEYFGLQHGDDPVDSPRWLEASKPLRKQLKGGLPCILHFRVRYFIPDPNTLQQEQTRHLYFLQLKMDVCEGRLTCPLNSAVVLASYAVQSHIGDFNSSIHHPGYLADSQFIPDQNDDFLSKVESLHEQHSGLKQSEAESCYINIARTLDFYGVELHGGRDLHNLDLMIGIASAGIAVYRKYICTSFYPWVNILKISFKRKKFFIHQRQKQAESREHIVAFNMLNYRSCKNLWKSCVEHHSFFQAKKLLPQEKNVLSQYWTLGSRNPKKSVNNQYCKKVIGGMVWNPVMRRSLSVERLETKSLPSRSPPITPNWRSPRLRHEIRKPRHSSADNLANEMTYITETEDVFYTYKGSLSPKDSDSEVSQNHSPHRGSLSENNPAQSCLTQKSSSSVSPCSNAPGSFSPDGVDQQFLEDYHKVTKGGSIEEASQYYCDKNDDGDGYLVLIRITPDKEGRFGFNLKGGVDQKMPLVVSRINPESPADTCMPKLNEGDQIVLINGRDISEHTHDQVVMFIKASRESHSRELALVIRRKAVRSLAEIRSEDELSQLFPEAMFPACPEGGDSLEGSMELLKKGLESGTVLIQFEQLYRKKPGLAVTFAKLPQNLDKNRYKDVLPYDTTRVLLQGNEDYINASYVNMEIPAANLVNKYIATQGPLPHTCAQFWQVVWDQKLSLVVMLTTLTERGRTKCHQYWPDPPDIMDHGIFHIQCQAEDCTIAYVSREMLVTNTETGEEHTVTHLQYVAWPDHGVPDDSSDFLEFVKYVRSLRVGGEPALVHCSAGIGRTGVLVTMETAMCLIERNLPVYPLDIVRKMRDQRAMMVQTSSQYKFVCEAILRVYEEGLVQTLDPS”, the protein production entry is “failed”.

Take “MTSRRLEESMGAVQMGLVNMFKGFQSKVLPPLSPKVVTEEEVNRMLTPSEFLKEMSLTTEQRLAKTRLMCRPQIIELLDMGETTHQKFSGIDLDQALFQPFPSEIIFQNYTPCEVYEVPLILRNNDKIPRLVKVVEESSPYFKVISPKDIGHKVAPGVPSIFRILFTPEENKDYAHTLTCVTEREKFIVPIKARGARAILDFPDKLNFSTCPVKYSTQKILLVRNIGNKNAVFHIKTCRPFSIEPAIGTLNVGESMQLEVEFEPQSVGDHSGRLIVCYDTGEKVFVSLYGAAIDMNIRLDKNSLTIEKTYISMANQRTITIHNRSNIIAHFLWKVFATQQEEDREKYRACDDLIKEEKDETDEFFEECITDPLLREHLSVLSRTFANQRRLVQGDSKLFFNNVFTVEPLEGDVWPNSSAEITVYFNPLEAKLYQQTIYCDILGREIRLPLRIKGEGMGPKIHFNFELLDIGKVFTGSAHCYEAILYNKGSIDALFNMTPPTSALGACFVFSPKEGIIEPSGVQAIQISFSSIILGNFEEEFLVNVNGSPEPVKLTIRGCVIGPTFHFNVPALHFGDVSFGFPHTLICSLNNTSLIPMTYKLRIPGDGLGHKSISYCEQHVDYKRPSWTKEEISSMKPKEFTISPDCGTIRPQGFAAIRVTLCSNTVQKYELALVVDVEGIGEEVLALLITARYCSPACSSPESPPSLQ”: the protein production result is on record as “not failed”.
